Assay results reported in patent US20240400720A1 (NOVIMMUNE S A, published 2024).

Assays:
human CD19 on Raji cells = target: T1, human CD19 on Raji cells (human, UniProt P15391 20-556); assay: FACS on Raji cells (CD19-positive, CD47-positive), human IgG1 format, 0.01-10 µg/ml; both targets are on the cells, the filing ascribes the binding to co-engagement driven mainly by the CD19 arm
T1 construct: whole, on cells; also called native form of hCD19
T1 sequence (looked up): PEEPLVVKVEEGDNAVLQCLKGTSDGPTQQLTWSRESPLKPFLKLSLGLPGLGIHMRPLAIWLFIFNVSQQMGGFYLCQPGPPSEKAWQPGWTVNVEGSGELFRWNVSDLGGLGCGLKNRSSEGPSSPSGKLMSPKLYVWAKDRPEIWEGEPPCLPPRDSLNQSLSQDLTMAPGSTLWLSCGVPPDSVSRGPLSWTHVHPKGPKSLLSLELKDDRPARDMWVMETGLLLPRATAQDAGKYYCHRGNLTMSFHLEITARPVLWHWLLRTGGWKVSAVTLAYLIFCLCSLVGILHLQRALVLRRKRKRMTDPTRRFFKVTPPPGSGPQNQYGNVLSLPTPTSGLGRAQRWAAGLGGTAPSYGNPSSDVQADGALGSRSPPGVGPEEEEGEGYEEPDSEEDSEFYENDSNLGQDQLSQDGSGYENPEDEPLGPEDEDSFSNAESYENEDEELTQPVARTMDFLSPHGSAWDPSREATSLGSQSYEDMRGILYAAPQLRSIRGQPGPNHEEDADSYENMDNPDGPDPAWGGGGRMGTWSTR
Experimental: The graphs in FIGS. 9A-9C present FACS profiles generated with monovalent and bispecific antibodies binding to CD19-negative B-NHL cells (DS-1) and CD19-positive Burkitt lymphoma cells (Raji). All antibodies were human IgG1 format and were tested at four concentrations as indicated.
Two types of cells were used, a CD19-positive Burkitt lymphoma cell line Raji (expressing about 65,000 CD47 molecules per cell) and the CD19-negative B-NHL cell line DS-1 (expressing about 150,000 CD47 molecules per cell) as a control.

human CD19 = target: T2, human CD19 (human, UniProt P15391 20-291, limits assumed); assay: second round of affinity maturation (from D11)
T2 construct: also called hCD19
T2 sequence (looked up): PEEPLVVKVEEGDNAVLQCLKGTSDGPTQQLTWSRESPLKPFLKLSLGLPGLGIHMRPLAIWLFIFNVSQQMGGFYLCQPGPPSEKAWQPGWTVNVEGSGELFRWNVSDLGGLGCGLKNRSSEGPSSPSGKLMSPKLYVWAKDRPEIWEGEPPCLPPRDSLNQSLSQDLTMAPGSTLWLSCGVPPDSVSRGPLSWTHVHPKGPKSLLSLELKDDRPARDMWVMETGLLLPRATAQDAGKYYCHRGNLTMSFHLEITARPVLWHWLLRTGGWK

human CD47 [1] = target: T3, human CD47 (human, UniProt Q08722 19-141, limits assumed); assay: affinity maturation by phage display on hCD47; positive in hCD47-SIRPα inhibition screen, reformatted as IgG
T3 construct: also called hCD47

[2] = target: T4, human CD47 on the cell surface (human, UniProt Q08722 19-323); assay: CD47-SIRPα competitive binding assay: His-tagged soluble human SIRPα (200 ng/ml) on hCD47-transfected CHO cells, antibody 3.3 pM-330 nM; blocked ligand SIRPα
T4 construct: whole, on cells; also called huCD47; native CD47

human CD47 [3] = target: T3, human CD47; assay: screening of Examples 3 to 6

B1: Ke8G11xC2 (bispecific antibody, human IgG1, kappa, lambda)
common heavy chain: not shown
kappa light chain (Ke8G11, anti-CD47): DIQMTQSPSSLSASVGDRVTITCRASQSIGRYLNWYQQKPGKAPKLLIYAASSLQSGVPSRFSGSGSGTDFTLTISSLQPEDFATYYCQQMHPRGPKTFGQGTKVEIKRTVAAPSVFIFPPSDEQLKSGTASVVCLLNNFYPREAKVQWKVDNALQSGNSQESVTEQDSKDSTYSLSSTLTLSKADYEKHKVYACEVTHQGLSSPVTKSFNRGEC
lambda light chain (C2, anti-CD19): NFMLTQPHSVSESPGKTVTISCTRSSGSIEDKYVQWYQQRPGSSPTIVIYYDNERPSGVPDRFSGSIDSSSNSASLTISGLKTEDEADYYCQTYDQSLYGWVFGGGTKLTVLGQPKAAPSVTLFPPSSEELQANKATLVCLISDFYPGAVTVAWKADSSPVKAGVETTTPSKQSNNKYAASSYLSLTPEQWKSHRSYSCQVTHEGSTVEKTVAPTECS
notes: also called CD47xCD19 BsAb Ke8G11xC2; bispecific antibody Ke8G11×C2
B1: binds (human CD19 on Raji cells).

B2: C9 antibody (antibody, human IgG1, lambda, V domains shown)
VH: not shown
VL: NFMLTQPHSVSESPGKTVTISCTRSSGSIADKYVQWYQQRPGSSPTIVIYYDNERPSGVPDRFSGSIDSSSNSASLTISGLKTEDEADYYCQTYDESLYGWVFGGGTKLTVLG
notes: anti-CD19, IgG, lambda; also called L7B7_C9
B2: binds (human CD19).

B3: C6 antibody (antibody, human IgG1, lambda, V domains shown)
VH: not shown
VL: NFMLTQPHSVSESPGKTVTISCTRSSGSINDKYVQWYQQRPGSSPTIVIYFDNERPSGVPDRFSGSIDSSSNSASLTISGLKTEDEADYYCQTYDTSLYGWVFGGGTKLTVLG
notes: anti-CD19, IgG, lambda; also called L7B7 C6
B3: binds (human CD19).

B4: A6 antibody (antibody, human IgG1, lambda, V domains shown)
VH: not shown
VL: NFMLTQPHSVSESPGKTVTISCTRSSGSIGDKYVQWYQQRPGSSPTIVIYYDNERPSGVPDRFSGSIDSSSNSASLTISGLKTEDEADYYCQTYDESLYGWVFGGGTKLTVLG
notes: anti-CD19, IgG, lambda; also called L7B7_A6
B4: binds (human CD19).

B5: B11 antibody (antibody, human IgG1, lambda, V domains shown)
VH: not shown
VL: NFMLTQPHSVSESPGKTVTISCTRSSGSIEDKYVQWYQQRPGSSPTIVIYYDNERPSGVPDRFSGSIDSSSNSASLTISGLKTEDEADYYCQTYDNSLYGWVFGGGTKLTVLG
notes: anti-CD19, IgG, lambda; also called L7B7_B11
B5: binds (human CD19).

B6: Kc4C3 antibody (antibody, human IgG1, lambda, V domains shown)
VH: not shown
VL: QSALTQPASVSGSPGQSITISCTGTSSDVRAANYVSWYQQHPGKAPKLMIYKNSTRPSGVSNRFSGSKSGNTASLTISGLQAEDEADYYCSSYDWWFRPKVFGGGTKLTVLG
notes: IgG, lambda
B6: binds (human CD47 [1]); binds [2].

B7: Kc4B1 antibody (antibody, human IgG1, lambda, V domains shown)
VH: not shown
VL: QSALTQPASVSGSPGQSITISCTGTSSDVRANNYVSWYQQHPGKAPKLMIYESSARPSGVSNRFSGSKSGNTASLTISGLQAEDEADYYCSSYDWWFRPKVFGGGTKLTVLG
notes: IgG, lambda
B7: binds (human CD47 [1]); binds [2].

B8: Kc4 antibody (antibody, human IgG1, lambda, V domains shown)
VH: not shown
VL: QSALTQPASVSGSPGQSITISCTGTSSDVGGYNYVSWYQQHPGKAPKLMIYEVSNRPSGVSNRFSGSKSGNTASLTISGLQAEDEADYYCSSYDWWFRPKVFGGGTKLTVLG
notes: IgG, lambda (IGVL2-14)
B8: binds (human CD47 [3]); binds [2].

B9: Kc4F4 antibody (antibody, human IgG1, lambda, V domains shown)
VH: not shown
VL: QSALTQPASVSGSPGQSITISCTGTSSDVRRANYVSWYQQHPGKAPKLMIYQDSSRPSGVSNRFSGSKSGNTASLTISGLQAEDEADYYCSSYDWWFRPKVFGGGTKLTVLG
notes: IgG, lambda
B9: binds (human CD47 [1]); binds [2].

B10: Kc4A1 antibody (antibody, human IgG1, lambda, V domains shown)
VH: not shown
VL: QSALTQPASVSGSPGQSITISCTGTSSDVSARNYVSWYQQHPGKAPKLMIYESSKRPSGVSNRFSGSKSGNTASLTISGLQAEDEADYYCSSYDWWFRPKVFGGGTKLTVLG
notes: IgG, lambda
B10: binds (human CD47 [1]); binds [2].

B11: Kc4C11 antibody (antibody, human IgG1, lambda, V domains shown)
VH: not shown
VL: QSALTQPASVSGSPGQSITISCTGTSSDVRGNNYVSWYQQHPGKAPKLMIYENSKRPSGVSNRFSGSKSGNTASLTISGLQAEDEADYYCSSYDWWFRPKVFGGGTKLTVLG
notes: IgG, lambda
B11: binds (human CD47 [1]); binds [2].

B12: Kc4E2 antibody (antibody, human IgG1, lambda, V domains shown)
VH: not shown
VL: QSALTQPASVSGSPGQSITISCTGTSSDVYYNKYVSWYQQHPGKAPKLMIYESSKRPSGVSNRFSGSKSGNTASLTISGLQAEDEADYYCSSYDWWFRPKVFGGGTKLTVLG
notes: IgG, lambda; also called KC4-P2E2
B12: binds (human CD47 [1]); binds [2].

B13: Kc4A4 antibody (antibody, human IgG1, lambda, V domains shown)
VH: not shown
VL: QSALTQPASVSGSPGQSITISCTRTSSDVNNTNYVSWYQQHPGKAPKLMIYKTSGRPSGVSNRFSGSKSGNTASLTISGLQAEDEADYYCSSYDWWFRPKVFGGGTKLTVLG
notes: IgG, lambda
B13: binds (human CD47 [1]); binds [2].

B14: Kc4E10 antibody (antibody, human IgG1, lambda, V domains shown)
VH: not shown
VL: QSALTQPASVSGSPGQSITISCTGTSSDVNSANYVSWYQQHPGKAPKLMIYKSSSRPSGVSNRFSGSKSGNTASLTISGLQAEDEADYYCSSYDWWFRPKVFGGGTKLTVLG
notes: IgG, lambda
B14: binds (human CD47 [1]); binds [2].

B15: Kc4G11 antibody (antibody, human IgG1, lambda, V domains shown)
VH: not shown
VL: QSALTQPASVSGSPGQSITISCTGTSSDVGKANYVSWYQQHPGKAPKLMIYKDSDRPSGVSNRFSGSKSGNTASLTISGLQAEDEADYYCSSYDWWFRPKVFGGGTKLTVLG
notes: IgG, lambda
B15: binds (human CD47 [1]); binds [2].

B16: Kc4G9 antibody (antibody, human IgG1, lambda, V domains shown)
VH: not shown
VL: QSALTQPASVSGSPGQSITISCTGTSSDVERKNYVSWYQQHPGKAPKLMIYKNSTRPSGVSNRFSGSKSGNTASLTISGLQAEDEADYYCSSYDWWFRPKVFGGGTKLTVLG
notes: IgG, lambda
B16: binds (human CD47 [1]); binds [2].

B17: Ka3 antibody (antibody, human IgG1, kappa, V domains shown)
VH: not shown
VL: DIQMTQSPSSLSASVGDRVTITCRASQSISSYLNWYQQKPGKAPKLLIYAASSLQSGVPSRFSGSGSGTDFTLTISSLQPEDFATYYCQQMHPRAPKTFGQGTKVEIKR
notes: IgG, kappa (IGVK1-39)
B17: binds (human CD47 [3]); binds [2].

B18: Ke8H6 antibody (antibody, human IgG1, kappa, V domains shown)
VH: not shown
VL: DIQMTQSPSSLSASVGDRVTITCRASQSISKYLNWYQQKPGKAPKLLIYNASTLQSGVPSRFSGSGSGTDFTLTISSLQPEDFATYYCQQRHPRGPRTFGQGTKVEIKR
notes: IgG
B18: binds (human CD47 [1]); binds [2].

B19: Ke81G9 antibody (antibody, human IgG1, kappa, V domains shown)
VH: not shown
VL: DIQMTQSPSSLSASVGDRVTITCRASQSIDKYLNWYQQKPGKAPKLLIYAASRLQSGVPSRFSGSGSGTDFTLTISSLQPEDFATYYCQQRHKRSPQTFGQGTKVEIKR
notes: IgG
B19: binds (human CD47 [1]); binds [2].

B20: Ke86G9 antibody (antibody, human IgG1, kappa, V domains shown)
VH: not shown
VL: DIQMTQSPSSLSASVGDRVTITCRASQSISKYLNWYQQKPGKAPKLLIYNASNLQSGVPSRFSGSGSGTDFTLTISSLQPEDFATYYCQQRHPRGPTTFGQGTKVEIKR
notes: IgG
B20: binds (human CD47 [1]); binds [2].

B21: Ke84G9 antibody (antibody, human IgG1, kappa, V domains shown)
VH: not shown
VL: DIQMTQSPSSLSASVGDRVTITCRASQSISKYLNWYQQKPGKAPKLLIYAASSLQSGVPSRFSGSGSGTDFTLTISSLQPEDFATYYCQQKHPRSPRTFGQGTKVEIKR
notes: IgG
B21: binds (human CD47 [1]); binds [2].

B22: Ke81A3 antibody (antibody, human IgG1, kappa, V domains shown)
VH: not shown
VL: DIQMTQSPSSLSASVGDRVTITCQASQDINRYLNWYQQKPGKAPKLLIYAASSLQSGVPSRFSGSGSGTDFTLTISSLQPEDFATYYCQQRHPRAPRTFGQGTKVEIKR
notes: IgG
B22: binds (human CD47 [1]); binds [2].
